Assays:
[1] = molecular target: T1, cynomolgus monkey PD-L1-His protein (Sino Biological, Cat. 90251-C08H) (cynomolgus monkey, UniProt G7PSE7 19-239); assay: SPR (Biacore T200), antibody captured on the chip, PD-L1-His injected, 1:1 model, 25 C
T1 construct: Bought reagent; also called cynomolgus PD-L1 recombinant protein; not shown: His tag

[2] = molecular target: T2, recombinant human PD-L1-His protein (Novoprotein, Cat. 315) (human, UniProt Q9NZQ7 19-239); assay: as above
T2 construct: Bought reagent; also called human PD-L1 recombinant protein; not shown: His tag

[3] = molecular target: T3, PD-L1 on the surface of CHO-PD-L1 cells (UniProt Q9NZQ7 19-290, limits assumed); assay: cell-based or functional assay
[4] = molecular target: T4, Human PD-L1 recombinant protein (Sino Biological, Cat.10084-H05H) (human, UniProt Q9NZQ7 19-239); assay: competitive ELISA: human PD-L1 coated, antibody titrated against human PD-1-His (competitor), anti-His-HRP detection
T4 construct: also called human PD-L1 protein; PD-L1 protein
Procedure: Human PD-L1 recombinant protein (Sino Biological, Cat.10084-H05H) was diluted with carbonate buffer and added to 96-well ELISA plate at a final concentration of 1 μg/ml. […] The competitive binding curve of the tested antibody could be drawn by matching the antibody concentration to the OD value, and the IC50 value could be calculated.

[5] = molecular target: T3, PD-L1 on the surface of CHO-PD-L1 cells; assay: flow cytometry (FACS) on CHO-PD-L1 cells, anti-human IgG PE detection

T3 sequence (Q9NZQ7 19-290 limits assumed): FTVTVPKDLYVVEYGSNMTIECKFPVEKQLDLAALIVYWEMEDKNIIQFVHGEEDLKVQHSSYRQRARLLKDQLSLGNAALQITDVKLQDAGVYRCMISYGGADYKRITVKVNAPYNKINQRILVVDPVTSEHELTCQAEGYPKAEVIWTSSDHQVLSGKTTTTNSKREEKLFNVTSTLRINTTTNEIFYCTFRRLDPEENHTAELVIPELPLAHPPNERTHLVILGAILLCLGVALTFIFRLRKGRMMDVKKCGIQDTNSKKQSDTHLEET
T1 sequence (G7PSE7 entry or part of it C08H C08H): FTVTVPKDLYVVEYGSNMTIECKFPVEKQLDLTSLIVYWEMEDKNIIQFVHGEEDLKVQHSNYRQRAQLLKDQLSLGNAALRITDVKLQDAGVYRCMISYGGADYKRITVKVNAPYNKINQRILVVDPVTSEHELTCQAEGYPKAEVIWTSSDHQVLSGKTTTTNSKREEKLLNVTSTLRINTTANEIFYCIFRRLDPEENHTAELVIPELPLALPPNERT
T2 sequence (Q9NZQ7 19-239 limits assumed): as the sequence (G7PSE7 entry or part of it C08H C08H) above, with T33A, S34A, N62S, Q68R, R82Q, L173F, A185T, I192T, L215H counted along it
T4 sequence (Q9NZQ7 19-239 limits assumed): as the sequence (G7PSE7 entry or part of it C08H C08H) above, with T33A, S34A, N62S, Q68R, R82Q, L173F, A185T, I192T, L215H counted along it

- Kd [1]: 0.937 nM
- Kd [2]: 1.79 nM
- EC50 of NFAT-controlled luminescent reporter signal (RLU), Jurkat-PD-1 cells co-incubated with CHO-PD-L1 cells [3]: 0.166 µg/mL
- IC50 [4]: 0.849 nM
- EC50 [5]: 0.0384 µg/mL
B1: 794-h1-71 (antibody, human IgG1, kappa, V domains shown)
VH: QVQLQQSGPGLVKPSQTLSLTCAVSGDSITSGYWNWIRKFPSRGLEYMGYISYSGSTYYNPFLKSRISINRDTSKNQYYLQLNSVTPEDTAVYYCAKMGDWLAWFAYWGQGTLVTVSS
VL: EIVMTQSPPTLSLSPGERVTLSCKSSQSLLYSSNQKNSLAWYQQKPGQAPRLLIYWASTRESGIPARFSGSGSGTDFTLTISSLQPEDFAVYYCQQYYGYPYTFGQGTKLEIKR
notes: also called humanized PD-L1 antibody

— US20230192797A1 (published 2023)
